In article PMC8514121 (Science signaling, 2020):
Positions count from the first letter of the chain named. Names and notes keep the numbering of the source. Values belong to the binder of their own block, whether it stands above or below them.

How the values were obtained:
crystal structure = biological target: the molecule itself; assay: crystal structure
cross-linking = biological target: the molecule itself; assay: cross-linking
[1] = biological target: T1, Aurora A kinase domain (residues 116 to 389) (human, UniProt O14965 116-389); assay: crystal structure
T1 sequence (looked up): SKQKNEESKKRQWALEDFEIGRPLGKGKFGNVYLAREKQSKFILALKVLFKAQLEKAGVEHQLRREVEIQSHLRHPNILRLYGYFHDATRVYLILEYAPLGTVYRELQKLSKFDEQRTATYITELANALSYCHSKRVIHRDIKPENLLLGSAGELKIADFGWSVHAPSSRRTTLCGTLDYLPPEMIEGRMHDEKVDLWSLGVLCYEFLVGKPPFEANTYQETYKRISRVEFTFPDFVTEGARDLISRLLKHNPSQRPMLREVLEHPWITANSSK

B1: CoAlated unphosphorylated C247V + C319V t-Aurora A (domain or fragment, UniProt Q9ULW0 7-20, looked up)
chain: SYSYDAPSDFINFSSKQKNEESKKRQWALEDFEIGRPLGKGKFGNVYLAREKQSKFILALKVLFKAQLEKAGVEHQLRREVEIQSHLRHPNILRLYGYFHDATRVYLILEYAPLGTVYRELQKLSKFDEQRTATYITELANALSYVHSKRVIHRDIKPENLLLGSAGELKIADFGWSVHAPSSRRTTLCGTLDYLPPEMIEGRMHDEKVDLWSLGVLVYEFLVGKPPFEANTYQETYKRISRVEFTFPDFVTEGARDLISRLLKHNPSQRPMLREVLEHPWITANSSK
modifications: coenzyme A disulfide adduct (CoAlation) on Cys290 on approximately two thirds of the protein; unphosphorylated
- binding result (crystal structure): binds

B2: t-Aurora A C247V + D256N + C319V kinase-dead mutant (Cys290-Cys290 disulfide homodimer) (domain or fragment, UniProt Q9ULW0 7-20, looked up)
chain: B1 chain with D155N
modifications: disulfide bond between Cys290 of the two monomers
- binding result (crystal structure): binds

B3: t-Aurora A C247V + C319V double mutant, unphosphorylated, catalytically active (used for the disulfide homodimer) (domain or fragment, UniProt Q9ULW0 7-20, looked up)
chain: B1 chain
- binding result (cross-linking): binds

- binding result [1]: binds
Binder: SYSYDAPSDFINFS (domain or fragment, UniProt Q9ULW0 7-20, looked up) [TPX2 fragment (residues 7 to 20)]
